Source: article PMC3014896

Legend:
[1] = target: HLMWb5 L51I mutant (human) (UniProt P00167)
[2] = target: HLMWb5 G67A mutant (human) (UniProt P00167)
[3] = target: HLMWb5 A59S mutant (human) (UniProt P00167)
[4] = target: HLMWb5 A59V mutant (human) (UniProt P00167)
[5] = target: heme-binding soluble domain of human liver microsomal cytochrome b5 with an NH2-terminal 6xHis-tag extension (HLMWb5) (human) (UniProt P00167)
[6] = target: HLMWb5 G67S mutant (human) (UniProt P00167)
[7] = target: full-length form of human cytochrome b5 (human) (UniProt P00167)
[8] = target: HLMWb5 L51I mutant (human) (UniProt P00167); remark: listed apart in the source
[9] = target: HLMWb5 G67A mutant (human) (UniProt P00167); remark: listed apart in the source
[10] = target: HLMWb5 A59S mutant (human) (UniProt P00167); remark: listed apart in the source
[11] = target: HLMWb5 A59V mutant (human) (UniProt P00167); remark: listed apart in the source
[12] = target: HLMWb5 G67S mutant (human) (UniProt P00167); remark: listed apart in the source
[13] = target: full-length form of human cytochrome b5 (human) (UniProt P00167); remark: listed apart in the source

midpoint potential (vs. SHE) by spectroscopic redox titration with 200 μM poly-L-lysine (-9.5 mV without poly-L-lysine) [1]: 10.5 mV | midpoint potential (vs. SHE) by spectroscopic redox titration with 200 μM poly-L-lysine (-8.4 mV without poly-L-lysine) [2]: -2.7 mV | midpoint potential (vs. SHE) by spectroscopic redox titration with 200 μM poly-L-lysine (-4.9 mV without poly-L-lysine) [3]: 9.6 mV | midpoint potential (vs. SHE) by spectroscopic redox titration with 200 μM poly-L-lysine (-7.7 mV without poly-L-lysine) [4]: 11.7 mV | midpoint potential (vs. SHE) by spectroscopic redox titration, 15 μM protein with 200 μM poly-L-lysine, pH 7.0, 25°C (-3.2 mV without poly-L-lysine) [5]: 16.5 mV | midpoint potential (vs. SHE) by spectroscopic redox titration with 200 μM poly-L-lysine (-7.3 mV without poly-L-lysine) [6]: 14.2 mV | midpoint potential (vs. SHE) by spectroscopic redox titration with 200 μM poly-L-lysine, 0.5% Triton X-100 (-2.6 mV without poly-L-lysine) [7]: 8.7 mV | half-wave potential E1/2 (vs. SHE) by cyclic voltammetry, poly-L-lysine 50~300 μM; no dependency on the poly-L-lysine concentration observed (value at 200 μM) [8]: -30.5 mV | half-wave potential E1/2 (vs. SHE) by cyclic voltammetry, poly-L-lysine 50~300 μM; similar concentration dependency as the wild type, with a significant negative shift (value at 200 μM) [9]: -40.5 mV | half-wave potential E1/2 (vs. SHE) by cyclic voltammetry, poly-L-lysine 50~300 μM; shifts positively and reaches a plateau at 200 μM (value at 200 μM) [10]: -31.5 mV | half-wave potential E1/2 (vs. SHE) by cyclic voltammetry, poly-L-lysine 50~300 μM; no dependency on the poly-L-lysine concentration observed (value at 200 μM) [11]: -29 mV | half-wave potential E1/2 (vs. SHE) by cyclic voltammetry, poly-L-lysine 50~300 μM; similar concentration dependency as the wild type (value at 200 μM) [12]: -32 mV | half-wave potential E1/2 (vs. SHE) by cyclic voltammetry, Au electrode with β-mercaptopropionic acid, 200 μM poly-L-lysine, with Triton X-100 [13]: -20.5 mV
Substance: poly-L-lysine (peptide)
